Measurements: patent US20240066131A1 (Protagonist Therapeutics, Inc., priority 2020, published 2024)
Starred links: 1 amine or outer side, 2 acyl side, 3 side chain; linkers in the order of their positions; H or OH if unused. Non-standard residues stand in square brackets, D forms with d. Groups on a side chain read outwards from the residue. Primed or numbered codes have the meaning given here. *: point of attachment. N‑(CH2CH2C(Ph)2H)Gly = N-substituted glycine carrying a 3,3-diphenylpropyl group, O=C(CN(CCC(c1ccccc1)c1ccccc1)[*:1])[*:2]; ButanoicP = (R)-4-(pyrrolidin-2-yl)butanoic acid, O=C(CCC[C@@H]1CCCN1[*:1])[*:2]; C18 diacid = O=C(O)CCCCCCCCCCCCCCCCC(=O)*; Dip = N[C@H](C(=O)O)C(c1ccccc1)c1ccccc1; γGlu = O=C(O)[C@H](CCC(=O)[*:2])N[*:1]; N(isopentyl)Gly′ = not defined here; Palmitoyl = CCCCCCCCCCCCCCCC(=O)*; β3hF = N[C@H](CC(=O)O)Cc1ccccc1; PEG4 = NCCOCCOCCOCCOCCC(=O)O; Isovaleryl = CC(C)CC(=O)*; AEEA = NCCOCCOCC(=O)O; Ahx = NCCCCCC(=O)O

B1: Isovaleric Acid-E-T-H-[Dpa]-P-A-I-[Lys(2PEG4_Palm)]-[bhPhe]-NH2 (peptide)
peptide: Isovaleryl-ETH[Dip]PAIK([PEG4-Palmitoyl])[β3hF]-NH2
SMILES: CCCCCCCCCCCCCCCC(=O)NCCOCCOCCOCCOCCC(=O)NCCCC[C@H](NC(=O)[C@@H](NC(=O)[C@H](C)NC(=O)[C@@H]1CCCN1C(=O)[C@@H](NC(=O)[C@H](Cc1c[nH]cn1)NC(=O)[C@@H](NC(=O)[C@H](CCC(=O)O)NC(=O)CC(C)C)[C@@H](C)O)C(c1ccccc1)c1ccccc1)[C@@H](C)CC)C(=O)N[C@H](CC(N)=O)Cc1ccccc1
B2: Isovaleric Acid-[Lys(Ahx_Palm)]-T-H-[Dpa]-P-A-I-[(D)Lys]-[bhPhe]-NH2; 1 (peptide)
peptide: Isovaleryl-K([Ahx-Palmitoyl])TH[Dip]PAI[dK][β3hF]-NH2
SMILES: CCCCCCCCCCCCCCCC(=O)NCCCCCC(=O)NCCCC[C@H](NC(=O)CC(C)C)C(=O)N[C@H](C(=O)N[C@@H](Cc1c[nH]cn1)C(=O)N[C@H](C(=O)N1CCC[C@H]1C(=O)N[C@@H](C)C(=O)N[C@H](C(=O)N[C@H](CCCCN)C(=O)N[C@H](CC(N)=O)Cc1ccccc1)[C@@H](C)CC)C(c1ccccc1)c1ccccc1)[C@@H](C)O
B3: Isovaleric Acid-E-T-H-[Dpa]-P-A-I-[Lys(Ahx_Palm)]-L-NH2 (peptide)
peptide: Isovaleryl-ETH[Dip]PAIK([Ahx-Palmitoyl])L-NH2
SMILES: CCCCCCCCCCCCCCCC(=O)NCCCCCC(=O)NCCCC[C@H](NC(=O)[C@@H](NC(=O)[C@H](C)NC(=O)[C@@H]1CCCN1C(=O)[C@@H](NC(=O)[C@H](Cc1c[nH]cn1)NC(=O)[C@@H](NC(=O)[C@H](CCC(=O)O)NC(=O)CC(C)C)[C@@H](C)O)C(c1ccccc1)c1ccccc1)[C@@H](C)CC)C(=O)N[C@@H](CC(C)C)C(N)=O
B4: Isovaleric Acid-L-T-H-[Dpa]-P-A-I-[Lys(Ahx_Palm)]-[bhPhe]-NH2 (peptide)
peptide: Isovaleryl-LTH[Dip]PAIK([Ahx-Palmitoyl])[β3hF]-NH2
SMILES: CCCCCCCCCCCCCCCC(=O)NCCCCCC(=O)NCCCC[C@H](NC(=O)[C@@H](NC(=O)[C@H](C)NC(=O)[C@@H]1CCCN1C(=O)[C@@H](NC(=O)[C@H](Cc1c[nH]cn1)NC(=O)[C@@H](NC(=O)[C@H](CC(C)C)NC(=O)CC(C)C)[C@@H](C)O)C(c1ccccc1)c1ccccc1)[C@@H](C)CC)C(=O)N[C@H](CC(N)=O)Cc1ccccc1
B5: Isovaleric Acid-L-T-H-[Dpa]-P-d[Lys(1PEG2_1PEG2_IsoGlu_C18_Diacid)]-[bhPhe]-NH2 (peptide)
peptide: Isovaleryl-LTH[Dip]P[dK]([AEEA-AEEA-γGlu-C18 diacid])[β3hF]-NH2
SMILES: CC(C)CC(=O)N[C@@H](CC(C)C)C(=O)N[C@H](C(=O)N[C@@H](Cc1c[nH]cn1)C(=O)N[C@H](C(=O)N1CCC[C@H]1C(=O)N[C@H](CCCCNC(=O)COCCOCCNC(=O)COCCOCCNC(=O)CC[C@H](NC(=O)CCCCCCCCCCCCCCCCC(=O)O)C(=O)O)C(=O)N[C@H](CC(N)=O)Cc1ccccc1)C(c1ccccc1)c1ccccc1)[C@@H](C)O
B6: Isovaleric Acid-E-T-H-[Dpa]-P-L-I-[Lys(Ahx_Palm)]-L-NH2 (peptide)
peptide: Isovaleryl-ETH[Dip]PLIK([Ahx-Palmitoyl])L-NH2
SMILES: CCCCCCCCCCCCCCCC(=O)NCCCCCC(=O)NCCCC[C@H](NC(=O)[C@@H](NC(=O)[C@H](CC(C)C)NC(=O)[C@@H]1CCCN1C(=O)[C@@H](NC(=O)[C@H](Cc1c[nH]cn1)NC(=O)[C@@H](NC(=O)[C@H](CCC(=O)O)NC(=O)CC(C)C)[C@@H](C)O)C(c1ccccc1)c1ccccc1)[C@@H](C)CC)C(=O)N[C@@H](CC(C)C)C(N)=O
B7: Isovaleric Acid-E-T-H-[Dpa]-P-[Lys(1PEG2_1PEG2_IsoGlu_C18_Diacid)]-[bhPhe]-NH2 (peptide)
peptide: XETHXPXX
modifications: N-term Isovaleric Acid; Dpa4; Lys(1PEG2_1PEG2_IsoGlu_C18_Diacid)6; bhPhe7; C-term NH2
B8: Isovaleric Acid-L-T-H-[Dpa]-P-A-I-[Lys(Ahx_Palm)]-L-NH2 (peptide)
peptide: Isovaleryl-LTH[Dip]PAIK([Ahx-Palmitoyl])L-NH2
SMILES: CCCCCCCCCCCCCCCC(=O)NCCCCCC(=O)NCCCC[C@H](NC(=O)[C@@H](NC(=O)[C@H](C)NC(=O)[C@@H]1CCCN1C(=O)[C@@H](NC(=O)[C@H](Cc1c[nH]cn1)NC(=O)[C@@H](NC(=O)[C@H](CC(C)C)NC(=O)CC(C)C)[C@@H](C)O)C(c1ccccc1)c1ccccc1)[C@@H](C)CC)C(=O)N[C@@H](CC(C)C)C(N)=O
B9: Isovaleric Acid-E-T-H-[Dpa]-P-d[Lys(1PEG2_1PEG2_IsoGlu_C18_Diacid)]-[bhPhe]-NH2 (peptide)
peptide: XETHXPXX
modifications: N-term Isovaleric Acid; Dpa4; d[Lys(1PEG2_1PEG2_IsoGlu_C18_Diacid)]6; bhPhe7; C-term NH2
B10: Isovaleric Acid-E-T-H-[Dpa]-P-d[Lys(1PEG2_1PEG2_Ahx_C18_Diacid)]-[bhPhe]-NH2 (peptide)
peptide: XETHXPXX
modifications: not fully specified; N-term Isovaleric Acid; Dpa4; d[Lys(1PEG2_1PEG2_Ahx_C18_Diacid)]6; bhPhe7; C-term NH2
B11: Ac-[Lys(Ahx_Palm)]-T-H-[Dpa]-P-A-I-[(D)Lys]-[bhPhe]-NH2 (peptide)
peptide: Ac-K([Ahx-Palmitoyl])TH[Dip]PAI[dK][β3hF]-NH2
SMILES: CCCCCCCCCCCCCCCC(=O)NCCCCCC(=O)NCCCC[C@H](NC(C)=O)C(=O)N[C@H](C(=O)N[C@@H](Cc1c[nH]cn1)C(=O)N[C@H](C(=O)N1CCC[C@H]1C(=O)N[C@@H](C)C(=O)N[C@H](C(=O)N[C@H](CCCCN)C(=O)N[C@H](CC(N)=O)Cc1ccccc1)[C@@H](C)CC)C(c1ccccc1)c1ccccc1)[C@@H](C)O
B12: Isovaleric Acid-[Lys(Ahx_Palm)]-T-H-[Dpa]-P-A-I-[(D)Lys]-[bhPhe]-NH2; 2 (peptide)
peptide: Isovaleryl-K([Ahx-Palmitoyl])TH[Dip]PAI[dK][β3hF]-NH2
SMILES: CCCCCCCCCCCCCCCC(=O)NCCCCCC(=O)NCCCC[C@H](NC(=O)CC(C)C)C(=O)N[C@H](C(=O)N[C@@H](Cc1c[nH]cn1)C(=O)N[C@H](C(=O)N1CCC[C@H]1C(=O)N[C@@H](C)C(=O)N[C@H](C(=O)N[C@H](CCCCN)C(=O)N[C@H](CC(N)=O)Cc1ccccc1)[C@@H](C)CC)C(c1ccccc1)c1ccccc1)[C@@H](C)O
B13: Isovaleric Acid-L-T-H-[Dpa]-P-L-I-[Lys(Ahx_Palm)]-L-NH2 (peptide)
peptide: Isovaleryl-LTH[Dip]PLIK([Ahx-Palmitoyl])L-NH2
SMILES: CCCCCCCCCCCCCCCC(=O)NCCCCCC(=O)NCCCC[C@H](NC(=O)[C@@H](NC(=O)[C@H](CC(C)C)NC(=O)[C@@H]1CCCN1C(=O)[C@@H](NC(=O)[C@H](Cc1c[nH]cn1)NC(=O)[C@@H](NC(=O)[C@H](CC(C)C)NC(=O)CC(C)C)[C@@H](C)O)C(c1ccccc1)c1ccccc1)[C@@H](C)CC)C(=O)N[C@@H](CC(C)C)C(N)=O
B14: Isovaleric Acid-E-T-H-[Dpa]-P-[Lys(1PEG2_1PEG2_Ahx_C18_Diacid)]-[bhPhe]-NH2 (peptide)
peptide: XETHXPXX
modifications: N-term Isovaleric Acid; Dpa4; Lys(1PEG2_1PEG2_Ahx_C18_Diacid)6; bhPhe7; C-term NH2
B15: Isovaleric Acid-L-T-H-[Dpa]-P-L-I-[Lys(Ahx_Palm)]-[bhPhe]-NH2 (peptide)
peptide: Isovaleryl-LTH[Dip]PLIK([Ahx-Palmitoyl])[β3hF]-NH2
SMILES: CCCCCCCCCCCCCCCC(=O)NCCCCCC(=O)NCCCC[C@H](NC(=O)[C@@H](NC(=O)[C@H](CC(C)C)NC(=O)[C@@H]1CCCN1C(=O)[C@@H](NC(=O)[C@H](Cc1c[nH]cn1)NC(=O)[C@@H](NC(=O)[C@H](CC(C)C)NC(=O)CC(C)C)[C@@H](C)O)C(c1ccccc1)c1ccccc1)[C@@H](C)CC)C(=O)N[C@H](CC(N)=O)Cc1ccccc1
B16: Isovaleric Acid-L-T-H-[Dpa]-P-[Lys(1PEG2_1PEG2_IsoGlu_C18_Diacid)]-[bhPhe]-NH2 (peptide)
peptide: Isovaleryl-LTH[Dip]PK([AEEA-AEEA-γGlu-C18 diacid])[β3hF]-NH2
SMILES: CC(C)CC(=O)N[C@@H](CC(C)C)C(=O)N[C@H](C(=O)N[C@@H](Cc1c[nH]cn1)C(=O)N[C@H](C(=O)N1CCC[C@H]1C(=O)N[C@@H](CCCCNC(=O)COCCOCCNC(=O)COCCOCCNC(=O)CC[C@H](NC(=O)CCCCCCCCCCCCCCCCC(=O)O)C(=O)O)C(=O)N[C@H](CC(N)=O)Cc1ccccc1)C(c1ccccc1)c1ccccc1)[C@@H](C)O

Each binder was assayed against T1, human ferroportin (SLC40A1) fused in frame with GFP, stably expressed in HEK293 cells (human, UniProt Q9NP59 1-571) (assay: cell-based or functional assay).
T1 sequence (looked up): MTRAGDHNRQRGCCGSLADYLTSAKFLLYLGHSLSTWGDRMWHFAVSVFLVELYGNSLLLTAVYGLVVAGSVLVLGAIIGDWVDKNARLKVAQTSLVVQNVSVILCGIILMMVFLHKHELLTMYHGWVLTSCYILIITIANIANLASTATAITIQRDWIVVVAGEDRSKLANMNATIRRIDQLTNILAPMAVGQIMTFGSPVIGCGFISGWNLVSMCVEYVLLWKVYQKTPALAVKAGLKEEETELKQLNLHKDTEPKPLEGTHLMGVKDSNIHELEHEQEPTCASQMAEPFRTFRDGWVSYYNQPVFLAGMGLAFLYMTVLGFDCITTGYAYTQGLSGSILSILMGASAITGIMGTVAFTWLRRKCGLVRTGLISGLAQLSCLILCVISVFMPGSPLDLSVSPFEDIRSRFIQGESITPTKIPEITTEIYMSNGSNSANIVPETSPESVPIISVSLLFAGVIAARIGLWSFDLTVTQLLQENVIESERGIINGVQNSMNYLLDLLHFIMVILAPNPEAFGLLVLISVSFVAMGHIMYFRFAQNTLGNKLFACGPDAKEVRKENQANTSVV

Row | Binder | FPN EC50 [nM]
1 | B1 | 32.7
2 | Isovaleryl-[dE]TH[Dip]PIIK(Ac)[β3hF]-NH2 [Isovaleric Acid-[(D)Glu]-T-H-[Dpa]-P-I-I-[Lys(Ac)]-[bhPhe]-NH2] | 1450
3 | Isovaleryl-ETH[N‑(CH2CH2C(Ph)2H)Gly]PAIK([Ahx-Palmitoyl])[β3hF]-NH2 [Isovaleric Acid-E-T-H-[N-(CH2CH2C(Ph)2H)Gly]-P-A-I-[Lys(Ahx_Palm)]-[bhPhe]-NH2] | > 3000
4 | Isovaleryl-ETH[Dip]PAIK([Ahx-Palmitoyl])[N‑(CH2CH2Ph)Gly]-NH2 [Isovaleric Acid-E-T-H-[Dpa]-P-A-I-[Lys(Ahx_Palm)]-[N-(CH2CH2Ph)Gly]-NH2] | 31.9
5 | Isovaleryl-[N‑(CH2CH2CH2CO2H)Gly]TH[Dip]PAIK([Ahx-Palmitoyl])[β3hF]-NH2 [Isovaleric Acid-[N-(CH2CH2CH2CO2H)Gly]-T-H-[Dpa]-P-A-I-[Lys(Ahx_Palm)]-[bhPhe]-NH2] | 202
6 | Isovaleryl-ETH[Dip][ButanoicP]K([Ahx-Palmitoyl])[β3hF]-NH2 [Isovaleric Acid-E-T-H-[Dpa]-[ButanoicP]-[Lys(Ahx_Palm)]-[bhPhe]-NH2] | 20.5
7 | Isovaleryl-ET[N‑(CH2CH2-imidazol4-yl)Gly][Dip]PAIK([Ahx-Palmitoyl])[β3hF]-NH2 [Isovaleric Acid-E-T-[N-(CH2CH2-imidazol4-yl)Gly]-[Dpa]-P-A-I-[Lys(Ahx_Palm)]-[bhPhe]-NH2] | > 3000
8 | Isovaleryl-ETH[Dip]PA[N(isopentyl)Gly′]K([Ahx-Palmitoyl])[β3hF]-NH2 [Isovaleric Acid-E-T-H-[Dpa]-P-A-[N-(isopenty1)Gly]-[Lys(Ahx_Palm)]-[bhPhe]-NH2] | 13
9 | Isovaleryl-ETH[Dip]P[N(Et)Gly]IK([Ahx-Palmitoyl])[β3hF]-NH2 [Isovaleric Acid-E-T-H-[Dpa]-P-[N-(Et)Gly]-I-[Lys(Ahx_Palm)]-[bhPhe]-NH2] | 65.9
10 | Isovaleryl-E[N‑(CH2CH2OH)Gly]H[Dip]PAIK([Ahx-Palmitoyl])[β3hF]-NH2 [Isovaleric Acid-E-[N-(CH2CH2OH)Gly]-H-[Dpa]-P-A-I-[Lys(Ahx_Palm)]-[bhPhe]-NH2] | 2230

Target: T1, human ferroportin (SLC40A1) fused in …
Assay: cell-based or functional assay
Remark: another data set of the same source

Row | Binder | FPN IC50 [nM]
11 | B2 | 598
12 | B3 | 82
13 | B4 | 1580
14 | B5 | 394
15 | B6 | 37.4
16 | B7 | 1690
17 | B8 | 169
18 | B9 | 1490
19 | B10 | 86.8
20 | B11 | > 3000
21 | B12 | 654
22 | B13 | 342
23 | B14 | 367
24 | B15 | 1270
25 | B16 | 482
